Test results: the supplement of paper PMC10567573

B1: KRT71 (parent)
chain: ELRNVQDVVEDYKKRYEEEINKRT
B2: RHOBTB3 (parent)
chain: QLQSMPSRELASMNLDIVDLLKKA

Variants of: B1
Test: protein stability index of a GFP-peptide fusion (GPS, HEK-293T) (PSI 1-6); higher = more stable
Conditions: c terminus: a fixed tail appended
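Further: lentivirally expressed fusions sorted by FACS into six bins by GFP to DsRed ratio, PSI derived from sequencing read proportions per bin multiplied by bin number.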

| Variant | protein stability index |
| --- | --- |
| D11Q | 4.23 |
| E19V | 3.48 |
| L2A | 5.76 |
| N4H | 4.45 |
| K13P | 2.97 |
| K14M | 3.82 |
| D7Y | 3.06 |
| K13Y | 3.2 |
| V8S | 4.53 |
| D7M | 3.35 |
| E18N | 3.31 |
| R15L | 4.86 |
| E18T | 3.93 |
| V8F | 3.97 |
| E17T | 3.45 |
| T24R | 4.41 |
| E18P | 3.98 |
| R23Q | 3.83 |
| V9N | 3.24 |
| D7N | 3.36 |
| N21T | 2.89 |
| R23P | 3.56 |
| Y16M | 4.22 |
| E18K | 3.03 |
| R15M | 4.38 |
| D7F | 3.28 |
| Y12L | 3.22 |

| Variant | protein stability index |
| --- | --- |
| E19H | 3.73 |
| E1L | 3.9 |
| V8E | 3.98 |
| T24F | 2.85 |
| D11F | 3.01 |
| D11P | 3.44 |
| N4D | 4.68 |
| N4K | 4.51 |
| D11N | 3.63 |
| E10W | 2.43 |
| Q6A | 3.85 |
| R3P | 4.1 |
| R15N | 3.48 |
| V9Y | 3.62 |
| R15I | 4.28 |
| Y16P | 3.82 |
| Y16T | 3.89 |
| R3Q | 4.13 |
| K22I | 3.28 |
| E10K | 3.14 |
| T24Y | 3.18 |
| D11M | 3.31 |
| E17W | 3.87 |
| D11C | 3.98 |
| R23N | 4.11 |
| V5F | 3.38 |
| Y12T | 4.05 |

| Variant | protein stability index |
| --- | --- |
| D7I | 2.62 |
| V9E | 4.64 |
| E18S | 3.23 |
| R15C | 4.23 |
| V9F | 3.49 |
| E19K | 3.21 |
| V5W | 3.7 |
| N4T | 4.08 |
| R23G | 4.1 |
| L2D | 5.94 |
| R15T | 4.68 |
| R3F | 4.32 |
| E19Q | 2.54 |
| K22G | 3.27 |
| E1N | 3.49 |
| D11I | 2.82 |
| R23K | 4.2 |
| K22T | 4.15 |
| Y12E | 2.66 |
| E17I | 3.57 |
| E19D | 3.24 |
| V9I | 3.74 |
| I20T | 3.65 |
| R23T | 4.69 |
| Q6T | 3.4 |
| V8A | 3.37 |

Variants of: B2
Test: as above
Conditions: c terminus: a fixed tail appended

| Variant | protein stability index |
| --- | --- |
| Q1A | 3.43 |
| Q1C | 2.86 |
| Q1E | 3.01 |
